A short description of data set [1]: Phosphatase activity with fluorogenic substrate DiFMUP. It counts as biochemical. How it is done: Purified, recombinant KAPh phosphatase domain (amino acids 83-464 SEQ ID NO 4) (100 μg/mL) and full-length PTEN (amino acids 1-403) (100 μg/mL) were each mixed with a fluorogenic phosphatase substrate 6,8-difluoro-4-methylumbelliferyl phosphate (DiFMUP) (Molecular Probes, Eugene, Oreg.) at a final concentration of a 100 μM in assay buffer (10 mM sodium acetate, pH 6.0, 150 mM NaCl, 5 mM DTT). Following incubation at ambient temperature for 15 or 60 min., the fluorescence intensity of the 6,8-difluoro-4-methylumbelliferone (DiFMU) product was measured in triplicate and used as an assessment of phosphatase activity. A Victor 5 microplate reader from Wallac (Turku, Finland) was used to read the fluorescence intensity from 384-well microplates (Corning Inc., Corning, N.Y.).

The nature of data set [2]: Peptide phosphatase assay (BIOMOL green). It is filed as biochemical. Conditions: any peptide substrates examined; data not shown.
The target of data set [3] is T1, 6xHis-tagged KAPh full-length protein (expressed in HEK 293 cells from pcDNA4/HisMax) (Homo sapiens, UniProt Q63HR2 26-1409, limits assumed).
T1 construct: Used as HEK 293 cell lysate; also called full-length KAPh; hexahistidine-tagged full-length KAPh
T1 sequence: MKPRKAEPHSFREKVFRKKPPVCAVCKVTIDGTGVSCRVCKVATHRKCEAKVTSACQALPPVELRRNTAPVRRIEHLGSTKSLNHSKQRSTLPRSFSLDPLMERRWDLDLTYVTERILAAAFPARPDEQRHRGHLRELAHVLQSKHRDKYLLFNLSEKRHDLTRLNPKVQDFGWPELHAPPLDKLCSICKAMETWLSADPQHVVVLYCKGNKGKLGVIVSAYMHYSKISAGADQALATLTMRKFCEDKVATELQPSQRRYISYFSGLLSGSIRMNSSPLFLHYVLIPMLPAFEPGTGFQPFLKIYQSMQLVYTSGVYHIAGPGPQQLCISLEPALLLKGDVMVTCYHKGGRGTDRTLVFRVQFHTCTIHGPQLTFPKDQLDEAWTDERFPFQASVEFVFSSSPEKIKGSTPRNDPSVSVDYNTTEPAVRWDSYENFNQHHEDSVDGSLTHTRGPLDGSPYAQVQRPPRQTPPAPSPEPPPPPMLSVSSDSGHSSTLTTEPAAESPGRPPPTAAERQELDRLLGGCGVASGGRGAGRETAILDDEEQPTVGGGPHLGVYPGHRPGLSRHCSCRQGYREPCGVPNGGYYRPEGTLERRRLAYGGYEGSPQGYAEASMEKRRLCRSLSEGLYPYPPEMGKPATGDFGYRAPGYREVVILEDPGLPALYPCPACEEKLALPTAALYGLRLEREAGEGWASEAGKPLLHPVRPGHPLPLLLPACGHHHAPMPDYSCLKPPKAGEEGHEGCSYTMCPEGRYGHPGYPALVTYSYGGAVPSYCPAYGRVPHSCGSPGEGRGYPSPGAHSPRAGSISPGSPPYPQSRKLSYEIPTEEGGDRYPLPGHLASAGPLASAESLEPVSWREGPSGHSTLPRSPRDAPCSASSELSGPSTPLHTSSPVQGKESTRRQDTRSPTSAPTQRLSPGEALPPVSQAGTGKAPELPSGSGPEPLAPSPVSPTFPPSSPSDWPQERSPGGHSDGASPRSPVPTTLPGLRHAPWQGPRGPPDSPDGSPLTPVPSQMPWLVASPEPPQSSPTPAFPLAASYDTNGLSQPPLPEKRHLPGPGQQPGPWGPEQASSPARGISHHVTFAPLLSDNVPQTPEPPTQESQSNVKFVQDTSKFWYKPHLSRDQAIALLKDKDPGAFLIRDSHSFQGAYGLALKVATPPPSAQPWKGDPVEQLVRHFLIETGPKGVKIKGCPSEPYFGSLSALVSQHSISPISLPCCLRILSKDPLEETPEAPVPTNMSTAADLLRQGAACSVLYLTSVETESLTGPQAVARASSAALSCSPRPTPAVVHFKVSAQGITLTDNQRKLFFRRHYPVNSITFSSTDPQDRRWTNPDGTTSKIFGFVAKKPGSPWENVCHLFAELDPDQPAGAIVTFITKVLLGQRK
The experiment in a line: GST pull-down from HEK 293 lysate, anti-HisG blot.

Data set [4] has as its target T2, GST (baculovirus-expressed glutathione S-transferase alone) (UniProt P08515 1-218 = GST).
T2 construct: Control; also called GST alone
Nature of the data set: GST pull-down from HEK 293 lysate, anti-HisG blot.

T2 sequence (P08515 whole entry): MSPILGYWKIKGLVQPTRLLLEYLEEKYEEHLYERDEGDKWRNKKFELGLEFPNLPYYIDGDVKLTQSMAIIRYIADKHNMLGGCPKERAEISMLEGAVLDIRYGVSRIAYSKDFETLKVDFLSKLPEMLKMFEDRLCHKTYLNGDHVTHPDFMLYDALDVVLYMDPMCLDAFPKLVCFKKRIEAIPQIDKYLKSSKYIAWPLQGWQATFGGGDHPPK

Consider “PTEN: full-length PTEN (amino acids 1-403), tumor suppressor with phosphatase activity, used as comparator [reference compound]”, for which the “fluorescent product (DiFMU) generated, fold over buffer control” value in data set [1] (100 μg/mL protein, 100 μM DiFMUP, pH 6.0, ambient temperature, 60 min incubation) was determined as 6 fold. For the same molecule, the “phosphatase activity using peptide substrates” value in data set [2] is reported as “unable to detect significant, reproducible phosphatase activity”.

B1: GST Tie2 wild-type (GST fusion of the intracellular domain of human Tie2/TEK) (receptor, UniProt Q02763 770-1124, looked up)
chain: LQLKRANVQRRMAQAFQNVREEPAVQFNSGTLALNRKVKNNPDPTIYPVLDWNDIKFQDVIGEGNFGQVLKARIKKDGLRMDAAIKRMKEYASKDDHRDFAGELEVLCKLGHHPNIINLLGACEHRGYLYLAIEYAPHGNLLDFLRKSRVLETDPAFAIANSTASTLSSQQLLHFAADVARGMDYLSQKQFIHRDLAARNILVGENYVAKIADFGLSRGQEVYVKKTMGRLPVRWMAIESLNYSVYTTNSDVWSYGVLLWEIVSLGGTPYCGMTCAELYEKLPQGYRLEKPLNCDDEVYDLMRQCWREKPYERPSFAQILVSLNRMLEERKTYVNTTLYEKFTYAGIDCSAEEAA
modifications: some degree of tyrosine phosphorylation after in vitro autophosphorylation; sites not listed
notes: domain: intracellular domain; also called Tie2 kinase; not shown: glutathione S-transferase (GST) encoded by the pAcGHLT baculovirus transfer vector (Pharmingen); in-frame fusion, linker
For B1, in data set [3], the binding result is given as “no binding”.

B2: KAPh phosphatase domain: purified, recombinant KAPh phosphatase domain (amino acids 83-464 SEQ ID NO 4) (protein, listed as Homo sapiens)
chain: LNHSKQRSTLPRSFSLDPLMERRWDLDLTYVTERILAAAFPARPDEQRHRGHLRELAHVLQSKHRDKYLLFNLSEKRHDLTRLNPKVQDFGWPELHAPPLDKLCSICKAMETWLSADPQHVVVLYCKGNKGKLGVIVSAYMHYSKISAGADQALATLTMRKFCEDKVATELQPSQRRYISYFSGLLSGSIRMNSSPLFLHYVLIPMLPAFEPGTGFQPFLKIYQSMQLVYTSGVYHIAGPGPQQLCISLEPALLLKGDVMVTCYHKGGRGTDRTLVFRVQFHTCTIHGPQLTFPKDQLDEAWTDERFPFQASVEFVFSSSPEKIKGSTPRNDPSVSVDYNTTEPAVRWDSYENFNQHHEDSVDGSLTHTRGPLDGSPYAQVQ
In the case of B2, the “phosphatase activity over time” value in data set [1] (15 or 60 min incubation with DiFMUP) is on record as “time-dependent increase in phosphatase activity”.

B3: 6xHis-tagged KAPh SH2 domain (expressed in HEK 293 cells from pcDNA4/HisMax) (other, not shown: small tags and cut ends)
chain: WYKPHLSRDQAIALLKDKDPGAFLIRDSHSFQGAYGLALKVATPPPSAQPWKGDPVEQLVRHFLIETGPKGVKIKGCPSEPYFGSLSALVSQHSISPISLPCCLRILS
notes: Used as HEK 293 cell lysate; also called hexahistidine-tagged KAPh SH2 domain; KAPh SH2 domain-containing protein fragment
B3: the binding result in data set [4] is reported as “no binding”.

B4: GST Tie1 wild-type (GST fusion of the intracellular domain of human Tie1) (receptor, UniProt P35590 785-1138, looked up)
chain: CIRRSCLHRRRTFTYQSGSGEETILQFSSGTLTLTRRPKLQPEPLSYPVLEWEDITFEDLIGEGNFGQVIRAMIKKDGLKMNAAIKMLKEYASENDHRDFAGELEVLCKLGHHPNIINLLGACKNRGYLYIAIEYAPYGNLLDFLRKSRVLETDPAFAREHGTASTLSSRQLLRFASDAANGMQYLSEKQFIHRDLAARNVLVGENLASKIADFGLSRGEEVYVKKTMGRLPVRWMAIESLNYSVYTTKSDVWSFGVLLWEIVSLGGTPYCGMTCAELYEKLPQGYRMEQPRNCDDEVYELMRQCWRDRPYERPPFAQIALQLGRMLEARKAYVNMSLFENFTYAGIDATAEEA
modifications: some degree of tyrosine phosphorylation after in vitro autophosphorylation; sites not listed
notes: domain: intracellular domain; also called Tie1 kinase; not shown: glutathione S-transferase (GST) encoded by the pAcGHLT baculovirus transfer vector (Pharmingen); in-frame fusion, linker
With B4, in data set [3], the binding result is on record as “no binding”.

The values above are taken from patent US20030158083A1, “Method of effecting angiogenesis by modulating the function of a novel endothelia phosphatase” (The Procter & Gamble Company, priority 2002, published 2003).
